The values below come from PMC11241748, “DNA Repair Protein XRCC1 Stimulates Activity of DNA Polymerase λ under Conditions of Microphase Separation”.

This series concerns the target XRCC1 (UniProt P18887 1-633). Briefly: DLS (DNA-induced higher-order assembly); elevated DNA concentration; Rh ~135 to ~740 nm vs 6.7 nm without DNA; DLS and microscopy buffer not given in the material; activity assay: 50 mM Tris-HCl pH 7.5, 5 mM Mg2+, 0.5 mM DTT, 0.25 mg/mL BSA, 37 °C. Kd values in Table 1 a. Particulars: protein: recombinant; tags: His-tag; chain copies: 2; label: 5'-32P on upstream strand as printed; 1-nt gap (template G) between strands 1 and 2, both paired to strand 3; blunt outer ends.

B1: gap-DNA (dsDNA)
DNA 1: GGCGATTAAGTTGGG
DNA 2: AACGTCAGGGTCTTCC
DNA 3: GGAAGACCCTGACGTTGCCCAACTTAATCGCC
modifications: 5'-phosphate on downstream strand (5' margin of gap)
Consider B1, for which the binding result is recorded as “binds”.
